{"source": "the supplement of paper PMC10065799", "about": "“High-throughput profiling of sequence recognition by tyrosine kinases and SH2 domains using bacterial peptide display” (eLife, 2023);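 as to SH2 binding enrichment of the phosphorylated peptide, bacterial display: peptide library displayed on the E. coli surface as eCPX fusions, selected cells deep-sequenced, score is each peptide's frequency after selection divided by its frequency in the input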;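 as to phosphorylation enrichment, bacterial display: 11-residue human phosphosite peptides and single-mutation variants displayed on the E. coli surface, counted by deep sequencing, each peptide's frequency after selection divided by its frequency in the unselected input library; frequency after pTyr selection over input frequency; kinase dosed for 20-30% of maximal phosphorylation in three min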", "key": {"c-Src SH2": {"molecular_target": "c-Src SH2", "assay": "SH2 binding enrichment of the phosphorylated peptide, bacterial display (enrichment ratio); higher = better substrate or ligand; peptides without Tyr show the background"}, "Grb2 SH2": {"molecular_target": "Grb2 SH2 (UniProt P62993)", "sequence (P62993 whole entry, looked up)": "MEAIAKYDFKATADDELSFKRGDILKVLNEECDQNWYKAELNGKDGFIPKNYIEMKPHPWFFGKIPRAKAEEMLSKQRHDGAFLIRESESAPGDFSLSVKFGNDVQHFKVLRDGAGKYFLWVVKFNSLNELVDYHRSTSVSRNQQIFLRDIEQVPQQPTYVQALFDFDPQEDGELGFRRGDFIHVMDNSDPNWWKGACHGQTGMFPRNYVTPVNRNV", "assay": "SH2 binding enrichment of the phosphorylated peptide, bacterial display (enrichment ratio); higher = better substrate or ligand; peptides without Tyr show the background"}, "SHP2-C SH2": {"molecular_target": "SHP2-C SH2", "assay": "SH2 binding enrichment of the phosphorylated peptide, bacterial display (enrichment ratio); higher = better substrate or ligand; peptides without Tyr show the background"}, "Fer (mouse)": {"tested_on": "Fer (mouse)", "assay": "phosphorylation enrichment, bacterial display (enrichment ratio); higher = better substrate or ligand; peptides without Tyr show the background"}, "FGFR1": {"molecular_target": "FGFR1 (UniProt P11362)", "sequence (P11362 whole entry, looked up)": "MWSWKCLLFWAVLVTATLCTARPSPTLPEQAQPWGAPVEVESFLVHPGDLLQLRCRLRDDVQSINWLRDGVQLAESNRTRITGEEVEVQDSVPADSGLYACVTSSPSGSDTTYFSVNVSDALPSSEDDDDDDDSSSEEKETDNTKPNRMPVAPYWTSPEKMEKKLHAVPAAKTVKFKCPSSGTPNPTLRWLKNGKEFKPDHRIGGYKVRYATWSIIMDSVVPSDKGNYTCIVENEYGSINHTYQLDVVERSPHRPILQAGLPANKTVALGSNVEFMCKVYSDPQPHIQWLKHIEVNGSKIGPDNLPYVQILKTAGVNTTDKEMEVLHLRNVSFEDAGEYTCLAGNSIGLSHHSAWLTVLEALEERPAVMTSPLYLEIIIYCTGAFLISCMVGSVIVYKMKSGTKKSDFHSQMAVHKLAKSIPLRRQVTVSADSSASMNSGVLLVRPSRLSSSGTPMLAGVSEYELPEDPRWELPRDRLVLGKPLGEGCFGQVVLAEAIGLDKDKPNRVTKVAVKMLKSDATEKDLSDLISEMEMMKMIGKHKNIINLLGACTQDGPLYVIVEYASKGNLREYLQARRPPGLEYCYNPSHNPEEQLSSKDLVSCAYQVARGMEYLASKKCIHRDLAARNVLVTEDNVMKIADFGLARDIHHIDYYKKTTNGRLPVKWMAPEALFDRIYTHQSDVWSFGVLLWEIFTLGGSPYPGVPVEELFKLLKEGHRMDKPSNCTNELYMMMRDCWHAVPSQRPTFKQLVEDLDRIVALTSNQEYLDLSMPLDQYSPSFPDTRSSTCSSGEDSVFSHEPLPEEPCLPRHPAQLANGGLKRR", "assay": "phosphorylation enrichment, bacterial display (enrichment ratio); higher = better substrate or ligand; peptides without Tyr show the background"}, "Fes": {"molecular_target": "Fes (UniProt P07332)", "sequence (P07332 whole entry, looked up)": "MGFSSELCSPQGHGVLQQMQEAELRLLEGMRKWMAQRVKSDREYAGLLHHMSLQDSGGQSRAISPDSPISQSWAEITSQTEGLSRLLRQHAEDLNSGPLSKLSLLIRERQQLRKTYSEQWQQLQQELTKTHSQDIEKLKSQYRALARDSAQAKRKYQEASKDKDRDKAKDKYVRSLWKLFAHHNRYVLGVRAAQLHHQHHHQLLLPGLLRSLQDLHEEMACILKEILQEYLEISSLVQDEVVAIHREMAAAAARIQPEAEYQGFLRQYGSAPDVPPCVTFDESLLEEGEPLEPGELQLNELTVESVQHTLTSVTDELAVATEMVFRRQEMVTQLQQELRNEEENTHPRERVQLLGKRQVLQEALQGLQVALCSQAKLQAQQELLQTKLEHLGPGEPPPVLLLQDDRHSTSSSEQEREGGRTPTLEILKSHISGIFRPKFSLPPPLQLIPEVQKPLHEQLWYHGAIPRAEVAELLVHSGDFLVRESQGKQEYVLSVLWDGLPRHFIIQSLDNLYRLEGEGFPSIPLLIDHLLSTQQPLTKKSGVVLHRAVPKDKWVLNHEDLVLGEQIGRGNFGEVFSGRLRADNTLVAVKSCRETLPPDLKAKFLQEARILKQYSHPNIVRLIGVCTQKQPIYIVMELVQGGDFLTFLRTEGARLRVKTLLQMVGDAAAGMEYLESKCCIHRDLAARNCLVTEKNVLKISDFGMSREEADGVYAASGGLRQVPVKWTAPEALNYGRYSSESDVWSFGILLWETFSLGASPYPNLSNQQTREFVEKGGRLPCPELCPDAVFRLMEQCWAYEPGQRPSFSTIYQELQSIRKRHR", "assay": "phosphorylation enrichment, bacterial display (enrichment ratio); higher = better substrate or ligand; peptides without Tyr show the background"}, "EPHB2": {"molecular_target": "EPHB2 (UniProt P29323)", "sequence (P29323 whole entry, looked up)": "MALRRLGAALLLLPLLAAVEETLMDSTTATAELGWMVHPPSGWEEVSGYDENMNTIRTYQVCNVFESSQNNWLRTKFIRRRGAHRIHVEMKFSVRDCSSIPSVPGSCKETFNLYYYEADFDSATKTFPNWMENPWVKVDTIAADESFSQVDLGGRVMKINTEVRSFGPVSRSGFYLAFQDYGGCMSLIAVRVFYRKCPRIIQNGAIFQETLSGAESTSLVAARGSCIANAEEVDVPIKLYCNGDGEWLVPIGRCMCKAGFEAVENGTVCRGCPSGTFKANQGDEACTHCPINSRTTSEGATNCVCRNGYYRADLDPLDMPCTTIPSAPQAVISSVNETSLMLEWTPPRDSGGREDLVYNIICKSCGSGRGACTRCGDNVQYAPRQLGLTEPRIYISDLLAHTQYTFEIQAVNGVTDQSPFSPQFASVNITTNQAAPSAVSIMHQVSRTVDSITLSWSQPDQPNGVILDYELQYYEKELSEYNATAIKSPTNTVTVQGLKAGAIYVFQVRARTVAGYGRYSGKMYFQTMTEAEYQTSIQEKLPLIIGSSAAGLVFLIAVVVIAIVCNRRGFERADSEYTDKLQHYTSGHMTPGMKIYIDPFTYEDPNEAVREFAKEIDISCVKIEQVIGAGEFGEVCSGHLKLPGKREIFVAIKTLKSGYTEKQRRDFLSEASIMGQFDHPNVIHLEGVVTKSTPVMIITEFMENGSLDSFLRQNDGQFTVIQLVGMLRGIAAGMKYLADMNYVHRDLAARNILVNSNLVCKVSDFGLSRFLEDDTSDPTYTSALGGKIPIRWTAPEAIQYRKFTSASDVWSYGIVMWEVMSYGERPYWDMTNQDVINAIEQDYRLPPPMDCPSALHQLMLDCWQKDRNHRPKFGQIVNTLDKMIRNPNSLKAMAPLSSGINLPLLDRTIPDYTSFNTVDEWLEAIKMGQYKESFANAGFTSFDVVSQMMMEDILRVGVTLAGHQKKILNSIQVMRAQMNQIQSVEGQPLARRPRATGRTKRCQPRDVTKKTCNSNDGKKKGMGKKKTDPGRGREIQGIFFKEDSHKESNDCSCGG", "assay": "phosphorylation enrichment, bacterial display (enrichment ratio); higher = better substrate or ligand; peptides without Tyr show the background"}, "AncSZ": {"tested_on": "AncSZ", "assay": "phosphorylation enrichment, bacterial display (enrichment ratio); higher = better substrate or ligand; peptides without Tyr show the background"}, "Fyn": {"molecular_target": "Fyn (UniProt P06241)", "assay": "phosphorylation enrichment, bacterial display (enrichment ratio); higher = better substrate or ligand; peptides without Tyr show the background"}, "MERTK": {"molecular_target": "MERTK (UniProt Q12866)", "sequence (Q12866 whole entry, looked up)": "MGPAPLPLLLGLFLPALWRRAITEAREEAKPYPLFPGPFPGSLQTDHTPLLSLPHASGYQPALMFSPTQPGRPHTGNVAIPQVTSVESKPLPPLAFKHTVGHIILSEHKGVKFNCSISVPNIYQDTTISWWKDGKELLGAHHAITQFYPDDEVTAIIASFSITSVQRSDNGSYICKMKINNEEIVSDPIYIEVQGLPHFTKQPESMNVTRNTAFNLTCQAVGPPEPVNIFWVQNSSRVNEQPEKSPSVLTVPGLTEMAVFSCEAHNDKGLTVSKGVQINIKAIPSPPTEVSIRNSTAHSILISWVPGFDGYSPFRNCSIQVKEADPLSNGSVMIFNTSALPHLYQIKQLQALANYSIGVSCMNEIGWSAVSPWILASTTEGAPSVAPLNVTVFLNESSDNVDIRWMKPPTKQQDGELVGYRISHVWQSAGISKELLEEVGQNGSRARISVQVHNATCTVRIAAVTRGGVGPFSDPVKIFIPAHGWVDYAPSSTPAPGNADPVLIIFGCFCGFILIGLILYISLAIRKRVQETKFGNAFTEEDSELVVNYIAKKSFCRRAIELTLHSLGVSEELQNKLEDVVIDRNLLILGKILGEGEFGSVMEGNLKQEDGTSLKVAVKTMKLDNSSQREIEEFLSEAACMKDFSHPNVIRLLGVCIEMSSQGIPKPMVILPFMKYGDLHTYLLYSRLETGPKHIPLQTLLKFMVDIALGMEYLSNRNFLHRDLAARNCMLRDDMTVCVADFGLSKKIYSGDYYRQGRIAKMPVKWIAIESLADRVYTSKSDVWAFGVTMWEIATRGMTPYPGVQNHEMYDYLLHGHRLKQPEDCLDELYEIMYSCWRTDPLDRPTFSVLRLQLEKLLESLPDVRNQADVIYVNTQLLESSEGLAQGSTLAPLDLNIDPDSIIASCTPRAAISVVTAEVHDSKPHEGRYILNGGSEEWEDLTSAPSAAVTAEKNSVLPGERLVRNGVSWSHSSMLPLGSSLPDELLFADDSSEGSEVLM", "assay": "phosphorylation enrichment, bacterial display (enrichment ratio); higher = better substrate or ligand; peptides without Tyr show the background"}, "FGFR3": {"molecular_target": "FGFR3 (UniProt P22607)", "assay": "phosphorylation enrichment, bacterial display (enrichment ratio); higher = better substrate or ligand; peptides without Tyr show the background"}, "c-Abl (mouse)": {"tested_on": "c-Abl (mouse)", "assay": "phosphorylation enrichment, bacterial display (enrichment ratio); higher = better substrate or ligand; peptides without Tyr show the background"}, "EPHB1": {"molecular_target": "EPHB1 (UniProt P54762)", "assay": "phosphorylation enrichment, bacterial display (enrichment ratio); higher = better substrate or ligand; peptides without Tyr show the background"}, "c-Src": {"tested_on": "c-Src", "assay": "phosphorylation enrichment, bacterial display (enrichment ratio); higher = better substrate or ligand; peptides without Tyr show the background"}, "Jak2": {"molecular_target": "Jak2 (UniProt O60674)", "sequence (O60674 whole entry, looked up)": "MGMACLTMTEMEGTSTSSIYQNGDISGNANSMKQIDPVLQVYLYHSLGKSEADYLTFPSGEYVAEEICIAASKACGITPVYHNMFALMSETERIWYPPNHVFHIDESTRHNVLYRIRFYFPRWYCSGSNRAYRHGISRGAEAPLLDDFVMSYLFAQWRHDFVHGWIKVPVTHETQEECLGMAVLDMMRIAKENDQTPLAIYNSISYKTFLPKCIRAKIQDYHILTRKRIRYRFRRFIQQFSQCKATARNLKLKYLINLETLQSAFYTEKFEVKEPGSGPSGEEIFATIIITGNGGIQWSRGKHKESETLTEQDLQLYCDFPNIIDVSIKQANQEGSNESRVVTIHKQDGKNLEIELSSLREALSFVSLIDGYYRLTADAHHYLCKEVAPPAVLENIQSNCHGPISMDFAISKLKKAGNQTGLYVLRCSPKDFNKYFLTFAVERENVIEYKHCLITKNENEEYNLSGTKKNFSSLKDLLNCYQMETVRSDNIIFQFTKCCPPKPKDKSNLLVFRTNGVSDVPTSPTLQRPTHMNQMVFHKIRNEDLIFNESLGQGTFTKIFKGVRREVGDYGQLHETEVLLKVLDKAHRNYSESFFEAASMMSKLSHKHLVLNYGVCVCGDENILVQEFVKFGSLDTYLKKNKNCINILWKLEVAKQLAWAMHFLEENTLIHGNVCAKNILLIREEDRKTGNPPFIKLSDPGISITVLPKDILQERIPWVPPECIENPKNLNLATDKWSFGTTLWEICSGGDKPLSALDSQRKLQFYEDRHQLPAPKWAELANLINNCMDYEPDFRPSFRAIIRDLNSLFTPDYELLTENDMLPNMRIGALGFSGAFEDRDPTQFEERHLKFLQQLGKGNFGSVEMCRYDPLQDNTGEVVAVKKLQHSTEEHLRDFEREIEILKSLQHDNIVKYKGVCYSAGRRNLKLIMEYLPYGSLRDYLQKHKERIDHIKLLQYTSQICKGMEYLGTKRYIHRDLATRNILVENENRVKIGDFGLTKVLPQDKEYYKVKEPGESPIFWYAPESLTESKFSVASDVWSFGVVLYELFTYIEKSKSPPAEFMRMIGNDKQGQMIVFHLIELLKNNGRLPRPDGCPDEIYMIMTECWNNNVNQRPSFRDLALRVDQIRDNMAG", "assay": "phosphorylation enrichment, bacterial display (enrichment ratio); higher = better substrate or ligand; peptides without Tyr show the background"}, "Hck": {"molecular_target": "Hck (UniProt P08631)", "assay": "phosphorylation enrichment, bacterial display (enrichment ratio); higher = better substrate or ligand; peptides without Tyr show the background"}}}
{"sequence": "NLDCFYQQVTK [SEC16A_Y1041_R1039C]", "values": [{"measurement": "SH2 binding enrichment", "setting": "c-Src SH2", "value": 0.947}, {"measurement": "SH2 binding enrichment", "setting": "Grb2 SH2", "value": 1.1}, {"measurement": "SH2 binding enrichment", "setting": "SHP2-C SH2", "value": 0.845}, {"measurement": "phosphorylation enrichment", "setting": "Fer (mouse)", "value": 2.22}, {"measurement": "phosphorylation enrichment", "setting": "FGFR1", "value": 0.934}, {"measurement": "phosphorylation enrichment", "setting": "Fes", "value": 1.31}, {"measurement": "phosphorylation enrichment", "setting": "EPHB2", "value": 1.08}, {"measurement": "phosphorylation enrichment", "setting": "AncSZ", "value": 1.54}, {"measurement": "phosphorylation enrichment", "setting": "Fyn", "value": 0.675}, {"measurement": "phosphorylation enrichment", "setting": "MERTK", "value": 0.856}, {"measurement": "phosphorylation enrichment", "setting": "FGFR3", "value": 0.786}, {"measurement": "phosphorylation enrichment", "setting": "c-Abl (mouse)", "value": 0.831}, {"measurement": "phosphorylation enrichment", "setting": "EPHB1", "value": 1.1}, {"measurement": "phosphorylation enrichment", "setting": "c-Src", "value": 1.31}, {"measurement": "phosphorylation enrichment", "setting": "Jak2", "value": 1.15}, {"measurement": "phosphorylation enrichment", "setting": "Hck", "value": 1.91}]}
{"sequence": "NLTVNYKKNLT [SQOR_Y259_I264T]", "values": [{"measurement": "SH2 binding enrichment", "setting": "c-Src SH2", "value": 0.381}, {"measurement": "SH2 binding enrichment", "setting": "Grb2 SH2", "value": 0.93}, {"measurement": "SH2 binding enrichment", "setting": "SHP2-C SH2", "value": 0.482}, {"measurement": "phosphorylation enrichment", "setting": "Fer (mouse)", "value": 0.503}, {"measurement": "phosphorylation enrichment", "setting": "FGFR1", "value": 0.376}, {"measurement": "phosphorylation enrichment", "setting": "Fes", "value": 1.24}, {"measurement": "phosphorylation enrichment", "setting": "EPHB2", "value": 0.629}, {"measurement": "phosphorylation enrichment", "setting": "AncSZ", "value": 0.883}, {"measurement": "phosphorylation enrichment", "setting": "Fyn", "value": 0.608}, {"measurement": "phosphorylation enrichment", "setting": "MERTK", "value": 0.547}, {"measurement": "phosphorylation enrichment", "setting": "FGFR3", "value": 0.615}, {"measurement": "phosphorylation enrichment", "setting": "c-Abl (mouse)", "value": 1.03}, {"measurement": "phosphorylation enrichment", "setting": "EPHB1", "value": 0.429}, {"measurement": "phosphorylation enrichment", "setting": "c-Src", "value": 0.502}, {"measurement": "phosphorylation enrichment", "setting": "Jak2", "value": 1.05}, {"measurement": "phosphorylation enrichment", "setting": "Hck", "value": 0.539}]}
{"sequence": "KYGTNYRVGSS [CPO_Y278]", "values": [{"measurement": "SH2 binding enrichment", "setting": "c-Src SH2", "value": 0.835}, {"measurement": "SH2 binding enrichment", "setting": "Grb2 SH2", "value": 1.01}, {"measurement": "SH2 binding enrichment", "setting": "SHP2-C SH2", "value": 1.23}, {"measurement": "phosphorylation enrichment", "setting": "Fer (mouse)", "value": 0.308}, {"measurement": "phosphorylation enrichment", "setting": "FGFR1", "value": 0.338}, {"measurement": "phosphorylation enrichment", "setting": "Fes", "value": 0.549}, {"measurement": "phosphorylation enrichment", "setting": "EPHB2", "value": 0.388}, {"measurement": "phosphorylation enrichment", "setting": "AncSZ", "value": 0.438}, {"measurement": "phosphorylation enrichment", "setting": "Fyn", "value": 0.416}, {"measurement": "phosphorylation enrichment", "setting": "MERTK", "value": 0.377}, {"measurement": "phosphorylation enrichment", "setting": "FGFR3", "value": 0.362}, {"measurement": "phosphorylation enrichment", "setting": "c-Abl (mouse)", "value": 0.466}, {"measurement": "phosphorylation enrichment", "setting": "EPHB1", "value": 0.307}, {"measurement": "phosphorylation enrichment", "setting": "c-Src", "value": 0.389}, {"measurement": "phosphorylation enrichment", "setting": "Jak2", "value": 0.403}, {"measurement": "phosphorylation enrichment", "setting": "Hck", "value": 0.415}]}
{"sequence": "TPGPNYCPGYN [USH2A_Y463_R464C]", "values": [{"measurement": "SH2 binding enrichment", "setting": "c-Src SH2", "value": 0.937}, {"measurement": "SH2 binding enrichment", "setting": "Grb2 SH2", "value": 1.68}, {"measurement": "SH2 binding enrichment", "setting": "SHP2-C SH2", "value": 0.501}, {"measurement": "phosphorylation enrichment", "setting": "Fer (mouse)", "value": 0.497}, {"measurement": "phosphorylation enrichment", "setting": "FGFR1", "value": 0.504}, {"measurement": "phosphorylation enrichment", "setting": "Fes", "value": 1.17}, {"measurement": "phosphorylation enrichment", "setting": "EPHB2", "value": 0.551}, {"measurement": "phosphorylation enrichment", "setting": "AncSZ", "value": 0.694}, {"measurement": "phosphorylation enrichment", "setting": "Fyn", "value": 0.623}, {"measurement": "phosphorylation enrichment", "setting": "MERTK", "value": 0.379}, {"measurement": "phosphorylation enrichment", "setting": "FGFR3", "value": 0.616}, {"measurement": "phosphorylation enrichment", "setting": "c-Abl (mouse)", "value": 0.429}, {"measurement": "phosphorylation enrichment", "setting": "EPHB1", "value": 0.468}, {"measurement": "phosphorylation enrichment", "setting": "c-Src", "value": 0.35}, {"measurement": "phosphorylation enrichment", "setting": "Jak2", "value": 0.853}, {"measurement": "phosphorylation enrichment", "setting": "Hck", "value": 0.466}]}
{"sequence": "TEHMAYCPIQC [SHC4_Y403_Q400H]", "values": [{"measurement": "SH2 binding enrichment", "setting": "c-Src SH2", "value": 1.2}, {"measurement": "SH2 binding enrichment", "setting": "Grb2 SH2", "value": 0.821}, {"measurement": "SH2 binding enrichment", "setting": "SHP2-C SH2", "value": 0.685}, {"measurement": "phosphorylation enrichment", "setting": "Fer (mouse)", "value": 0.557}, {"measurement": "phosphorylation enrichment", "setting": "FGFR1", "value": 0.458}, {"measurement": "phosphorylation enrichment", "setting": "Fes", "value": 0.821}, {"measurement": "phosphorylation enrichment", "setting": "EPHB2", "value": 0.524}, {"measurement": "phosphorylation enrichment", "setting": "AncSZ", "value": 0.72}, {"measurement": "phosphorylation enrichment", "setting": "Fyn", "value": 0.466}, {"measurement": "phosphorylation enrichment", "setting": "MERTK", "value": 0.416}, {"measurement": "phosphorylation enrichment", "setting": "FGFR3", "value": 0.638}, {"measurement": "phosphorylation enrichment", "setting": "c-Abl (mouse)", "value": 0.661}, {"measurement": "phosphorylation enrichment", "setting": "EPHB1", "value": 0.489}, {"measurement": "phosphorylation enrichment", "setting": "c-Src", "value": 0.764}, {"measurement": "phosphorylation enrichment", "setting": "Jak2", "value": 0.778}, {"measurement": "phosphorylation enrichment", "setting": "Hck", "value": 0.805}]}
{"sequence": "FLQEIHNSNNQ [FGG_Y140_Y140H_YF]", "values": [{"measurement": "SH2 binding enrichment", "setting": "c-Src SH2", "value": 0.416}, {"measurement": "SH2 binding enrichment", "setting": "Grb2 SH2", "value": 0.71}, {"measurement": "SH2 binding enrichment", "setting": "SHP2-C SH2", "value": 0.867}, {"measurement": "phosphorylation enrichment", "setting": "Fer (mouse)", "value": 0.607}, {"measurement": "phosphorylation enrichment", "setting": "FGFR1", "value": 0.606}, {"measurement": "phosphorylation enrichment", "setting": "Fes", "value": 1.01}, {"measurement": "phosphorylation enrichment", "setting": "EPHB2", "value": 0.436}, {"measurement": "phosphorylation enrichment", "setting": "AncSZ", "value": 0.823}, {"measurement": "phosphorylation enrichment", "setting": "Fyn", "value": 0.511}, {"measurement": "phosphorylation enrichment", "setting": "MERTK", "value": 0.443}, {"measurement": "phosphorylation enrichment", "setting": "FGFR3", "value": 0.716}, {"measurement": "phosphorylation enrichment", "setting": "c-Abl (mouse)", "value": 0.808}, {"measurement": "phosphorylation enrichment", "setting": "EPHB1", "value": 0.561}, {"measurement": "phosphorylation enrichment", "setting": "c-Src", "value": 0.391}, {"measurement": "phosphorylation enrichment", "setting": "Jak2", "value": 0.63}, {"measurement": "phosphorylation enrichment", "setting": "Hck", "value": 0.538}]}
{"sequence": "VATRWYPSPEL [CDKL5_Y177_R178P]", "values": [{"measurement": "SH2 binding enrichment", "setting": "c-Src SH2", "value": 0.907}, {"measurement": "SH2 binding enrichment", "setting": "Grb2 SH2", "value": 1.23}, {"measurement": "SH2 binding enrichment", "setting": "SHP2-C SH2", "value": 0.794}, {"measurement": "phosphorylation enrichment", "setting": "Fer (mouse)", "value": 0.289}, {"measurement": "phosphorylation enrichment", "setting": "FGFR1", "value": 0.437}, {"measurement": "phosphorylation enrichment", "setting": "Fes", "value": 0.953}, {"measurement": "phosphorylation enrichment", "setting": "EPHB2", "value": 0.517}, {"measurement": "phosphorylation enrichment", "setting": "AncSZ", "value": 0.891}, {"measurement": "phosphorylation enrichment", "setting": "Fyn", "value": 0.439}, {"measurement": "phosphorylation enrichment", "setting": "MERTK", "value": 0.522}, {"measurement": "phosphorylation enrichment", "setting": "FGFR3", "value": 0.541}, {"measurement": "phosphorylation enrichment", "setting": "c-Abl (mouse)", "value": 0.696}, {"measurement": "phosphorylation enrichment", "setting": "EPHB1", "value": 0.577}, {"measurement": "phosphorylation enrichment", "setting": "c-Src", "value": 0.473}, {"measurement": "phosphorylation enrichment", "setting": "Jak2", "value": 0.763}, {"measurement": "phosphorylation enrichment", "setting": "Hck", "value": 0.504}]}
